Patent US20250177531A1 (FRED HUTCHINSON CANCER CENTER, published 2025)
Blank lines part the entries; values can stand above or below the binder they belong to.

Assays:
[1] = target: KRAS G12V 8-16 9mer peptide … presented by HLA-A*11:01 (human); assay: cell-based or functional assay
[2] = target: KRAS G12V 7-16 10mer peptide … presented by HLA-A*11:01 (human); assay: cell-based or functional assay
[3] = target: T1, KRAS G12V (same sequence in NRAS G12V and HRAS G12V) peptide on HLA-A*11:01 (human); assay: stated without data
T1 peptide: VVGAVGVGK

[4] = target: RAB7B peptide … presented by HLA-A*11:01 (human); assay: cell-based or functional assay

EC50, CD137 surface expression assay (functional avidity), TCR 11N4A in primary human CD8+ T cells [1]: 0.0595 nM
percent of T cells responding (CD137), peptide titration [1]: > 80%
EC50, CD137 surface expression assay (functional avidity), TCR 11N4A in primary human CD8+ T cells [2]: 18.8 nM
B1: TCR 11N4A (TCR)
TCR alpha: QQKNDDQQVKQNSPSLSVQEGRISILNCDYTNSMFDYFLWYKKYPAEGPTFLISISSIKDKNEDGRFTVFLNKSAKHLSLHIVPSQPGDSAVYFCAASGVSGNTPLVFGKGTRLSVIANIQNPDPAVYQLRDSKSSDKSVCLFTDFDSQTNVSQSKDSDVYITDKCVLDMRSMDFKSNSAVAWSNKSDFACANAFNNSIIPEDTFFPSPESSCDVKLVEKSFETDTNLNFQNLSVIGFRILLLKVAGFNLLMTLRLWSS
TCR beta: GVTQTPRYLIKTRGQQVTLSCSPISGHRSVSWYQQTPGQGLQFLFEYFSETQRNKGNFPGRFSGRQFSNSRSEMNVSTLELGDSALYLCASSVGTVEQYFGPGTRLTVTEDLKNVFPPEVAVFEPSEAEISHTQKATLVCLATGFYPDHVELSWWVNGKEVHSGVCTDPQPLKEQPALNDSRYCLSSRLRVSATFWQNPRNHFRCQVQFYGLSENDEWTQDRAKPVTQIVSAEAWGRADCGFTSESYQQGVLSATILYEILLGKATLYAVLVSALVLMAMVKRKDSRG

binding result [3]: recognises
B2: TCR 11N6 (TCR, V domains shown)
Valpha: QQGEEDPQALSIQEGENATMNCSYKTSINNLQWYRQNSGRGLVHLILIRSNEREKHSGRLRVTLDTSKKSSSLLITASRAADTASYFCATDPMNTNAGKSTFGDGTTLTVKP
Vbeta: GVAQSPRYKIIEKRQSVAFWCNPISGHATLYWYQQILGQGPKLLIQFQNNGVVDDSQLPKDRFSAERLKGVDSTLKIQPAKLEDSAVYLCASSPYGGSVSYEQYFGPGTRLTVT

EC50, CD137 expression, sort-purified TCR 11N4A-transduced T cells, peptide titration [4]: ~35 µg/mL
B3: TCR 11N4A (TCR, V domains shown)
V domain 1: DQQVKQNSPSLSVQEGRISILNCDYTNSMFDYFLWYKKYPAEGPTFLISISSIKDKNEDGRFTVFLNKSAKHLSLHIVPSQPGDSAVYFCAASGVSGNTPLVFGKGTRLSVIA
V domain 2: GVTQTPRYLIKTRGQQVTLSCSPISGHRSVSWYQQTPGQGLQFLFEYFSETQRNKGNFPGRFSGRQFSNSRSEMNVSTLELGDSALYLCASSVGTVEQYFGPGTRLTVTE
